{
  "source": "patent US20050255104A1",
  "binders": {"B1": {"name": "chimeric mouse/human IgG1 anti-platelet mAb (7E3) (antibody, INN chains, looked up, V domains shown)", "VH": "EVQLQQSGTVLARPGASVKMSCEASGYTFTNYWMHWVKQRPGQGLEWIGAIYPGNSDTSYIQKFKGKAKLTAVTSTTSVYMELSSLTNEDSAVYYCTLYDGYYVFAYWGQGTLVTVSA", "VL": "EIVLTQSPVTLSVTPGDSVSLSCRASRDISNNLHWFQQTSHESPRLLIKYASQSMSGIPSRFSGSGSGTDFTLSINSVETEDFGMYFCQQTNSWPYTFGGGTKLEIK", "modifications": "full IgG1"}},
  "target": "human tumor necrosis factor-α (TNFα) (human) (UniProt P01375)",
  "sequence (P01375 77-233 limits assumed)": "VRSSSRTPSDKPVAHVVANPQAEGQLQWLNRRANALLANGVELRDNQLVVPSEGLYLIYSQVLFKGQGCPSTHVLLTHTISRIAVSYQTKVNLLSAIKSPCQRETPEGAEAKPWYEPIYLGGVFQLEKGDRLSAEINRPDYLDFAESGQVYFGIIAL",
  "assay": "cell-based or functional assay",
  "data": [
    {"binder": "B1", "values": [
      {"measurement": "IL-6 secreted by FS-4 fibroblasts, 0.3 ng/ml rhTNF with 4 µg/ml antibody", "result": 1.6, "unit": "ng/mL"},
      {"measurement": "IL-6 secreted by FS-4 fibroblasts, 1.5 ng/ml rhTNF with 4 µg/ml antibody", "result": 1.96, "unit": "ng/mL"},
      {"measurement": "IL-6 secreted by FS-4 fibroblasts, 7.5 ng/ml rhTNF with 4 µg/ml antibody", "result": 2.16, "unit": "ng/mL"}
    ]}
  ]
}
